The values that follow come from patent publication US20190374662A1 (published 2019).

To fix the notation:
B1: CEACAM1-Ig fusion protein (extracellular portion of CEACAM1 fused to the Fc portion of human IgG1) (Fc fusion)
chain: QLTTESMPFNVAEGKEVLLLVHNLPQQLFGYSWYKGERVDGNRQIVGYAIGTQQATPGPANSGRETIYPNASLLIQNVTQNDTGFYTLQVIKSDLVNEEATGQFHVYP
notes: also called CCM1-Ig; soluble CEACAM1-Ig; not shown: Fc portion of human IgG1

Test in all cases: flow cytometry on stably transfected 721.221 cells
(In general: In flow cytometry, cells or beads pass a laser one at a time.)

Test [1] has as its target T1, CEACAM6 protein on 721.221 cells (human, UniProt P40199 35-142).
T1 construct: also called CD66c
T1 sequence: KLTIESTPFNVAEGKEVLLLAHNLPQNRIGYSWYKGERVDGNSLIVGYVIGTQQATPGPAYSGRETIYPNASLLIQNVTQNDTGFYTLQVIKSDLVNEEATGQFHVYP

Test [2] deals with B1.
For test [3], the target named is T2, CD99-Ig fusion protein (control) (human, UniProt P14209 23-122, limits assumed).
T2 construct: extracellular domain; Control fusion protein produced in COS-7 cells; not shown: human IgG1 (Fc portion)
T2 sequence (looked up): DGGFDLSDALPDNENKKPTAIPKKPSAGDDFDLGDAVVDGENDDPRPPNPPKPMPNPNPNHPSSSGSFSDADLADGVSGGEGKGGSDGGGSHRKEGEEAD

B1: the binding result in test [1] is on record as “no binding”.

B2: CCM6-S43R (CEACAM6 with 43S changed to 43R) (receptor)
chain: KLTIESTPFNVAEGKEVLLLAHNLPQNRIGYSWYKGERVDGNRLIVGYVIGTQQATPGPAYSGRETIYPNASLLIQNVTQNDTGFYTLQVIKSDLVNEEATGQFHVYP
notes: also called CEACAM6-S43R
On to B2, for which the binding result in test [2] is recorded as “no binding”.

B3: CCM1-RQ43,44SL (CEACAM1 with S and L at positions 43 and 44 instead of R and Q) (receptor)
chain: QLTTESMPFNVAEGKEVLLLVHNLPQQLFGYSWYKGERVDGNSLIVGYAIGTQQATPGPANSGRETIYPNASLLIQNVTQNDTGFYTLQVIKSDLVNEEATGQFHVYP
notes: also called CEACAM1-RQ43,44SL
As to B3, the binding result in test [3] and in test [2] was “no binding” throughout.

B4: CCM1-Q44L (CEACAM1 with 44Q changed to 44L) (receptor)
chain: QLTTESMPFNVAEGKEVLLLVHNLPQQLFGYSWYKGERVDGNRLIVGYAIGTQQATPGPANSGRETIYPNASLLIQNVTQNDTGFYTLQVIKSDLVNEEATGQFHVYP
notes: also called CEACAM1-Q44L
Turning to B4, the binding result in test [2] is reported as “no binding”.

B5: CCM1-R43A (CEACAM1 with 43R changed to 43A) (receptor)
chain: QLTTESMPFNVAEGKEVLLLVHNLPQQLFGYSWYKGERVDGNAQIVGYAIGTQQATPGPANSGRETIYPNASLLIQNVTQNDTGFYTLQVIKSDLVNEEATGQFHVYP
notes: The expression level was lower than that of the other transfectants; also called CEACAM1-R43A
On to B5, for which, in test [2], the binding result is on record as “no binding”.

B6: CCM6-SL43,44RQ (CEACAM6 with R and Q at positions 43 and 44 instead of S and L) (receptor)
chain: KLTIESTPFNVAEGKEVLLLAHNLPQNRIGYSWYKGERVDGNRQIVGYVIGTQQATPGPAYSGRETIYPNASLLIQNVTQNDTGFYTLQVIKSDLVNEEATGQFHVYP
notes: also called CEACAM6-SL43,44RQ
For B6, the binding result in test [3] is given as “no binding”.

B7: CCM6-L44Q (CEACAM6 with 44L changed to 44Q) (receptor)
chain: KLTIESTPFNVAEGKEVLLLAHNLPQNRIGYSWYKGERVDGNSQIVGYVIGTQQATPGPAYSGRETIYPNASLLIQNVTQNDTGFYTLQVIKSDLVNEEATGQFHVYP
notes: also called CEACAM6-L44Q
On to B7, for which, in test [2], the binding result is on record as “no binding”.
